Assay results taken from US20220119549A1 (TAVOTEK BIOTHERAPEUTICS HONG KONG, published 2022).

Target: T1, recombinant human TNFα (human, UniProt P01375 77-233)
T1 construct: Bought protein
Test: ELISA on human TNFα

T1 sequence (P01375 77-233 limits assumed): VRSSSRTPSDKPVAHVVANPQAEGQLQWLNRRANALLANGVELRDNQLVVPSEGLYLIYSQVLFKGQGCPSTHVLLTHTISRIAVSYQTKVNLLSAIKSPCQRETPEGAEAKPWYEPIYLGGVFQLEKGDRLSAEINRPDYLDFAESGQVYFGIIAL

binding result | fold more reduced binding affinity than TAVO190191 [fold] | Binder
binds |  | TAVO190197 after digestion by both MMP2 and MMP3 (antibody, Both chains cut; not shown: remnant of the MMP2-cleavable linker left after cleavage; remnant of the MMP3-cleavable linker left after cleavage) heavy: EVQLVESGGGLVQPGGSLRLSCAASGFDFADYAMHWVRQAPGKGLEWVSAITWNGGHTDYADSVKGRFTISRDNSKNTLYLQMNSLRAEDTAVYYCAKVSYLSTASSLDYWGQGTLVTVSSASTKGPSVFPLAPSSKSTSGGTAALGCLVKDYFPEPVTVSWNSGALTSGVHTFPAVLQSSGLYSLSSVVTVPSSSLGTQTYICNVNHKPSNTKVDKKVEPKSCDKTHTCPPCPAPPAAGPSVFLFPPKPKDTLMISRTPEVTCVVVDVSHEDPEVKFNWYVDGVEVHNAKTKPREEQYNSTYRVVSVLTVLHQDWLNGKEYKCKVSNKALPAPIEKTISKAKGQPREPQVYTLPPSRDELTKNQVSLTCLVKGFYPSDIAVEWESNGQPENNYKTTPPVLDSDGSFLLYSKLTVDKSRWQQGNVFSCSVLHEALHSHYTQKSLSLSPGK light: not shown
 | 8 | TAVO271272 (antibody, human IgG1, kappa, Undigested; ADA-H2X / ADA-L1; also called anti-TNFα shielded antibody with variant IGF2-based masking domain; EAC271/EAC272) heavy: GILEECCFRSCDLALLETYCAGGGGSPLGLAGGGGGSEVQLVESGGGLVQPGGSLRLSCAASGFDFADYAMHWVRQAPGKGLEWVSAITWNGGHTDYADSVKGRFTISRDNSKNTLYLQMNSLRAEDTAVYYCAKVSYLSTASSLDYWGQGTLVTVSSASTKGPSVFPLAPSSKSTSGGTAALGCLVKDYFPEPVTVSWNSGALTSGVHTFPAVLQSSGLYSLSSVVTVPSSSLGTQTYICNVNHKPSNTKVDKKVEPKSCDKTHTCPPCPAPPAAGPSVFLFPPKPKDTLMISRTPEVTCVVVDVSHEDPEVKFNWYVDGVEVHNAKTKPREEQYNSTYRVVSVLTVLHQDWLNGKEYKCKVSNKALPAPIEKTISKAKGQPREPQVYTLPPSRDELTKNQVSLTCLVKGFYPSDIAVEWESNGQPENNYKTTPPVLDSDGSFLLYSKLTVDKSRWQQGNVFSCSVLHEALHSHYTQKSLSLSPGK light: not shown
binds |  | TAVO190197 (antibody, human IgG1, kappa, Undigested; also called anti-TNFα shielded antibody with two different types of protease-cleavable linkers; undigested TAVO190197) heavy: GIVEECCFRSCDLALLETYCAGGGGSPLGLAGGGGGSEVQLVESGGGLVQPGGSLRLSCAASGFDFADYAMHWVRQAPGKGLEWVSAITWNGGHTDYADSVKGRFTISRDNSKNTLYLQMNSLRAEDTAVYYCAKVSYLSTASSLDYWGQGTLVTVSSASTKGPSVFPLAPSSKSTSGGTAALGCLVKDYFPEPVTVSWNSGALTSGVHTFPAVLQSSGLYSLSSVVTVPSSSLGTQTYICNVNHKPSNTKVDKKVEPKSCDKTHTCPPCPAPPAAGPSVFLFPPKPKDTLMISRTPEVTCVVVDVSHEDPEVKFNWYVDGVEVHNAKTKPREEQYNSTYRVVSVLTVLHQDWLNGKEYKCKVSNKALPAPIEKTISKAKGQPREPQVYTLPPSRDELTKNQVSLTCLVKGFYPSDIAVEWESNGQPENNYKTTPPVLDSDGSFLLYSKLTVDKSRWQQGNVFSCSVLHEALHSHYTQKSLSLSPGK light: not shown
binds |  | TAVO271585 (antibody, human IgG1, kappa, Variant IGF2 mask; ADA-H2X / ADA-L2; also called EAC271/EAC585) heavy: GILEECCFRSCDLALLETYCAGGGGSPLGLAGGGGGSEVQLVESGGGLVQPGGSLRLSCAASGFDFADYAMHWVRQAPGKGLEWVSAITWNGGHTDYADSVKGRFTISRDNSKNTLYLQMNSLRAEDTAVYYCAKVSYLSTASSLDYWGQGTLVTVSSASTKGPSVFPLAPSSKSTSGGTAALGCLVKDYFPEPVTVSWNSGALTSGVHTFPAVLQSSGLYSLSSVVTVPSSSLGTQTYICNVNHKPSNTKVDKKVEPKSCDKTHTCPPCPAPPAAGPSVFLFPPKPKDTLMISRTPEVTCVVVDVSHEDPEVKFNWYVDGVEVHNAKTKPREEQYNSTYRVVSVLTVLHQDWLNGKEYKCKVSNKALPAPIEKTISKAKGQPREPQVYTLPPSRDELTKNQVSLTCLVKGFYPSDIAVEWESNGQPENNYKTTPPVLDSDGSFLLYSKLTVDKSRWQQGNVFSCSVLHEALHSHYTQKSLSLSPGK light: AYRPSETLCGGELVDTLQFVCGDRGFAFGGGGSPLGLAGGGGGSDIVMTQSPDSLAVSLGERATINCRASQGIRNYLAWYQQKPGQAPKLLIYAASTLQSGVPDRFSGSGSGTDFTLTISSLQAEDVAVYYCQRYNRAPYTFGQGTKVEIKRTVAAPSVFIFPPSDEQLKSGTASVVCLLNNFYPREAKVQWKVDNALQSGNSQESVTEQDSKDSTYSLSSTLTLSKADYEKHKVYACEVTHQGLSSPVTKSFNRGEC
binds |  | TAVO578585 (antibody, human IgG1, kappa, Variant IGF2 mask; ADA-H1 / ADA-L2; also called EAC578/EAC585) heavy: GILEECCFRSCDLALLETYCAGGGGSPLGLAGGGGGSEVQLVESGGVVVQPGGSLRLSCAASGFTFDDYAMHWVRQAPGKGLEWVSAITWNSGHIDYADSVKGRFTISRDNSKNSLYLQMNSLRTEDTALYYCAKVSYLSTASSLDYWGQGTLVTVSSASTKGPSVFPLAPSSKSTSGGTAALGCLVKDYFPEPVTVSWNSGALTSGVHTFPAVLQSSGLYSLSSVVTVPSSSLGTQTYICNVNHKPSNTKVDKKVEPKSCDKTHTCPPCPAPPAAGPSVFLFPPKPKDTLMISRTPEVTCVVVDVSHEDPEVKFNWYVDGVEVHNAKTKPREEQYNSTYRVVSVLTVLHQDWLNGKEYKCKVSNKALPAPIEKTISKAKGQPREPQVYTLPPSRDELTKNQVSLTCLVKGFYPSDIAVEWESNGQPENNYKTTPPVLDSDGSFLLYSKLTVDKSRWQQGNVFSCSVLHEALHSHYTQKSLSLSPGK light: AYRPSETLCGGELVDTLQFVCGDRGFAFGGGGSPLGLAGGGGGSDIVMTQSPDSLAVSLGERATINCRASQGIRNYLAWYQQKPGQAPKLLIYAASTLQSGVPDRFSGSGSGTDFTLTISSLQAEDVAVYYCQRYNRAPYTFGQGTKVEIKRTVAAPSVFIFPPSDEQLKSGTASVVCLLNNFYPREAKVQWKVDNALQSGNSQESVTEQDSKDSTYSLSSTLTLSKADYEKHKVYACEVTHQGLSSPVTKSFNRGEC
binds |  | TAVO578272 (antibody, human IgG1, kappa, Variant IGF2 mask; ADA-H1 / ADA-L1; also called EAC578/EAC272) heavy: GILEECCFRSCDLALLETYCAGGGGSPLGLAGGGGGSEVQLVESGGVVVQPGGSLRLSCAASGFTFDDYAMHWVRQAPGKGLEWVSAITWNSGHIDYADSVKGRFTISRDNSKNSLYLQMNSLRTEDTALYYCAKVSYLSTASSLDYWGQGTLVTVSSASTKGPSVFPLAPSSKSTSGGTAALGCLVKDYFPEPVTVSWNSGALTSGVHTFPAVLQSSGLYSLSSVVTVPSSSLGTQTYICNVNHKPSNTKVDKKVEPKSCDKTHTCPPCPAPPAAGPSVFLFPPKPKDTLMISRTPEVTCVVVDVSHEDPEVKFNWYVDGVEVHNAKTKPREEQYNSTYRVVSVLTVLHQDWLNGKEYKCKVSNKALPAPIEKTISKAKGQPREPQVYTLPPSRDELTKNQVSLTCLVKGFYPSDIAVEWESNGQPENNYKTTPPVLDSDGSFLLYSKLTVDKSRWQQGNVFSCSVLHEALHSHYTQKSLSLSPGK light: not shown
binds |  | TAVO584272 (antibody, human IgG1, kappa, Variant IGF2 mask; ADA-H4X / ADA-L1; also called EAC584/EAC272) heavy: GILEECCFRSCDLALLETYCAGGGGSPLGLAGGGGGSQVQLVESGGGVVQPGGSLRLSCAASGFDFADYAMHWVRQAPGKGLEWVSAITWNGGHTDYADSVKGRFTISRDNSKNTLYLQMNSLRAEDTAVYYCAKVSYLSTASSLDYWGQGTLVTVSSASTKGPSVFPLAPSSKSTSGGTAALGCLVKDYFPEPVTVSWNSGALTSGVHTFPAVLQSSGLYSLSSVVTVPSSSLGTQTYICNVNHKPSNTKVDKKVEPKSCDKTHTCPPCPAPPAAGPSVFLFPPKPKDTLMISRTPEVTCVVVDVSHEDPEVKFNWYVDGVEVHNAKTKPREEQYNSTYRVVSVLTVLHQDWLNGKEYKCKVSNKALPAPIEKTISKAKGQPREPQVYTLPPSRDELTKNQVSLTCLVKGFYPSDIAVEWESNGQPENNYKTTPPVLDSDGSFLLYSKLTVDKSRWQQGNVFSCSVLHEALHSHYTQKSLSLSPGK light: not shown
binds |  | TAVO579272 (antibody, human IgG1, kappa, Variant IGF2 mask; ADA-H1X / ADA-L1; also called EAC579/EAC272) heavy: GILEECCFRSCDLALLETYCAGGGGSPLGLAGGGGGSEVQLVESGGVVVQPGGSLRLSCAASGFDFADYAMHWVRQAPGKGLEWVSAITWNGGHTDYADSVKGRFTISRDNSKNSLYLQMNSLRTEDTALYYCAKVSYLSTASSLDYWGQGTLVTVSSASTKGPSVFPLAPSSKSTSGGTAALGCLVKDYFPEPVTVSWNSGALTSGVHTFPAVLQSSGLYSLSSVVTVPSSSLGTQTYICNVNHKPSNTKVDKKVEPKSCDKTHTCPPCPAPPAAGPSVFLFPPKPKDTLMISRTPEVTCVVVDVSHEDPEVKFNWYVDGVEVHNAKTKPREEQYNSTYRVVSVLTVLHQDWLNGKEYKCKVSNKALPAPIEKTISKAKGQPREPQVYTLPPSRDELTKNQVSLTCLVKGFYPSDIAVEWESNGQPENNYKTTPPVLDSDGSFLLYSKLTVDKSRWQQGNVFSCSVLHEALHSHYTQKSLSLSPGK light: not shown
binds |  | TAVO579585 (antibody, human IgG1, kappa, Variant IGF2 mask; ADA-H1X / ADA-L2; also called EAC579/EAC585) heavy: GILEECCFRSCDLALLETYCAGGGGSPLGLAGGGGGSEVQLVESGGVVVQPGGSLRLSCAASGFDFADYAMHWVRQAPGKGLEWVSAITWNGGHTDYADSVKGRFTISRDNSKNSLYLQMNSLRTEDTALYYCAKVSYLSTASSLDYWGQGTLVTVSSASTKGPSVFPLAPSSKSTSGGTAALGCLVKDYFPEPVTVSWNSGALTSGVHTFPAVLQSSGLYSLSSVVTVPSSSLGTQTYICNVNHKPSNTKVDKKVEPKSCDKTHTCPPCPAPPAAGPSVFLFPPKPKDTLMISRTPEVTCVVVDVSHEDPEVKFNWYVDGVEVHNAKTKPREEQYNSTYRVVSVLTVLHQDWLNGKEYKCKVSNKALPAPIEKTISKAKGQPREPQVYTLPPSRDELTKNQVSLTCLVKGFYPSDIAVEWESNGQPENNYKTTPPVLDSDGSFLLYSKLTVDKSRWQQGNVFSCSVLHEALHSHYTQKSLSLSPGK light: AYRPSETLCGGELVDTLQFVCGDRGFAFGGGGSPLGLAGGGGGSDIVMTQSPDSLAVSLGERATINCRASQGIRNYLAWYQQKPGQAPKLLIYAASTLQSGVPDRFSGSGSGTDFTLTISSLQAEDVAVYYCQRYNRAPYTFGQGTKVEIKRTVAAPSVFIFPPSDEQLKSGTASVVCLLNNFYPREAKVQWKVDNALQSGNSQESVTEQDSKDSTYSLSSTLTLSKADYEKHKVYACEVTHQGLSSPVTKSFNRGEC
binds |  | TAVO580272 (antibody, human IgG1, kappa, Variant IGF2 mask; ADA-H2 / ADA-L1; also called EAC580/EAC272) heavy: GILEECCFRSCDLALLETYCAGGGGSPLGLAGGGGGSEVQLVESGGGLVQPGGSLRLSCAASGFTFDDYAMHWVRQAPGKGLEWVSAITWNSGHIDYADSVKGRFTISRDNSKNTLYLQMNSLRAEDTAVYYCAKVSYLSTASSLDYWGQGTLVTVSSASTKGPSVFPLAPSSKSTSGGTAALGCLVKDYFPEPVTVSWNSGALTSGVHTFPAVLQSSGLYSLSSVVTVPSSSLGTQTYICNVNHKPSNTKVDKKVEPKSCDKTHTCPPCPAPPAAGPSVFLFPPKPKDTLMISRTPEVTCVVVDVSHEDPEVKFNWYVDGVEVHNAKTKPREEQYNSTYRVVSVLTVLHQDWLNGKEYKCKVSNKALPAPIEKTISKAKGQPREPQVYTLPPSRDELTKNQVSLTCLVKGFYPSDIAVEWESNGQPENNYKTTPPVLDSDGSFLLYSKLTVDKSRWQQGNVFSCSVLHEALHSHYTQKSLSLSPGK light: not shown
